± gives the standard deviation of the averaged measurements.
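Further: PSI is a weighted mean of sequencing reads over stability bins, variants kept only with over 10 reads, mCherry proximal and sfGFP distal, peptide attached via GGGS linker.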

The subject of this data set is Saccharomyces cerevisiae. In words: protein stability index of tFT-peptide fusion (C-terminal peptide) (PSI (0-1 scale)); higher = more stable (slower turnover). Conditions: genetic background: wild type; temperature: 30 C.
For SSPCFGKLRHFL, the protein stability index is 0.686 ± 0.035.

For SSPFSLPSPPLS, the protein stability index came out at 0.676 ± 0.071.

SSPHRPTPSWPP: the protein stability index is 0.564 ± 0.0069.

SSPLPPAPPTAS showed a protein stability index of 0.587 ± 0.1.

As for SSPLPPPSRAAC, the protein stability index worked out at 0.762 ± 0.011.

With SSPPFPPSPPLP, the protein stability index was 0.695 ± 0.012.

For the sequence SSPPPPPPPLPL, the protein stability index was 0.705 ± 0.023.

The sequence SSPPSPSPPPPT yielded a protein stability index of 0.678 ± 0.038.

SSPPTPPFPPPP had a protein stability index of 0.7044 ± 0.00099.

Take SSPRPPPPRFSP: the protein stability index worked out at 0.687 ± 0.039.

Consider SSPSPPRPPAPF, for which the protein stability index turned out to be 0.704 ± 0.091.

The sequence SSPSPPSPPLPP showed a protein stability index of 0.735 ± 0.0095.

With SSRFNVAPGGCR, the protein stability index worked out at 0.745 ± 0.11.

In the case of SSRGSSSPPPHF, the protein stability index amounted to 0.709 ± 0.074.

For SSSHIRTDLSHF, the protein stability index was found to be 0.6852 ± 0.0065.

SSSPLLDPPLPH had a protein stability index of 0.68 ± 0.017.

The sequence SSSPSPRPPRPP showed a protein stability index of 0.679 ± 0.0097.

Turning to SSSVQSIPLPSA, the protein stability index came out at 0.71 ± 0.043.

In turn, SSTDLLDLALLV displayed a protein stability index of 0.718 ± 0.094.

The sequence SSWGARSGRRPS gave a protein stability index of 0.6989 ± 0.0045.

For the sequence STAKTARRKREK, the protein stability index was determined as 0.671 ± 0.0094.

In the case of STFGVMVTHEMN, the protein stability index was found to be 0.727 ± 0.021.

As for STFQVHSLPISP, the protein stability index was 0.702 ± 0.031.

Sequence STGMYFYTHYLL came in with a protein stability index of 0.632 ± 0.024.

Sequence STHTASAIQWST gave a protein stability index of 0.661 ± 0.025.

In turn, STIIKLCDCYKM displayed a protein stability index of 0.7 ± 0.11.

STLPPPSSPFHP had a protein stability index of 0.96 ± 0.021.

As to STLPTHQLPPHS, the protein stability index came to 0.624 ± 0.022.

As to STLRFGVSLWLP, the protein stability index was 0.712 ± 0.03.

STLTPLPLRASA gave a protein stability index of 0.5333 ± 0.005.

Sequence STLVIPFPPFHF gave a protein stability index of 0.7 ± 0.018.

Regarding STLYLKRKKIKK, the protein stability index was 0.696 ± 0.033.

In turn, STNARRLWGRGV showed a protein stability index of 0.699 ± 0.033.

STPPPHSPLPPP displayed a protein stability index of 0.689 ± 0.066.

Sequence STRERPDRHAVS showed a protein stability index of 0.676 ± 0.016.

STSPRSAFSPLT showed a protein stability index of 0.619 ± 0.011.

In the case of STVPGRPKLTLV, the protein stability index was 0.578 ± 0.032.

SVALGRQGTPNI: the protein stability index was found to be 0.6506 ± 0.0064.

Regarding SVALPLRQTPLH, the protein stability index is 0.667 ± 0.047.

SVAPAPYQTAKQ registered a protein stability index of 0.744 ± 0.032.

SVCRVSVKKECR: the protein stability index was 0.701 ± 0.12.

In turn, SVCSRVLILSPF came in with a protein stability index of 0.657 ± 0.068.

On to SVDPIFLNSGLG, for which the protein stability index is 0.693 ± 0.045.

The sequence SVFPHPYMVVRS displayed a protein stability index of 0.598 ± 0.0092.

SVGPVGASIGGG returned a protein stability index of 0.6668 ± 0.0032.

Turning to SVHPVNRDPSRH, the protein stability index came out at 0.6904 ± 0.0014.

Sequence SVINMLKPCNVI had a protein stability index of 0.647 ± 0.05.

Sequence SVLVTRILKFFL gave a protein stability index of 0.558 ± 0.068.

In the case of SVMMGVWWSGYR, the protein stability index amounted to 0.709 ± 0.13.

SVNGTGGGVVDL showed a protein stability index of 0.638 ± 0.12.

SVPFPTEYLVVD: the protein stability index amounted to 0.681 ± 0.075.

With SVPNYDAVGAGD, the protein stability index was found to be 0.667 ± 0.097.

SVPRPLSRPPFL gave a protein stability index of 0.697 ± 0.086.

In the case of SVPVLLLSILSP, the protein stability index was determined as 0.542 ± 0.013.

SVSGPAPPSMSS returned a protein stability index of 0.618 ± 0.12.

Sequence SVSGTPLRALLH had a protein stability index of 0.622 ± 0.01.

Consider SVSPSPPSPHLR, for which the protein stability index was determined as 0.688 ± 0.011.

Regarding SVTSKDEYDLEE, the protein stability index was found to be 0.694 ± 0.043.

In turn, SVVGEKAALMGV returned a protein stability index of 0.662 ± 0.014.

SWGACVDYLGWS showed a protein stability index of 0.754 ± 0.03.

SWGDVGSWLGGV returned a protein stability index of 0.663 ± 0.0068.

With SWGLGWIARRRT, the protein stability index was 0.684 ± 0.052.

With SWLGGIGGNEMV, the protein stability index came out at 0.726 ± 0.011.

Regarding SWLKRNLFPVAI, the protein stability index came to 0.596 ± 0.018.

As for SWVDVGSWLGGV, the protein stability index was 0.7108 ± 0.0043.

SWVGHGIPPWHM registered a protein stability index of 0.729 ± 0.027.

Take SWVSQFLVFWPV: the protein stability index was 0.716 ± 0.044.

For the sequence SWVSSGTVILQE, the protein stability index turned out to be 0.74 ± 0.077.

SWYSLVWTSSER: the protein stability index was determined as 0.695 ± 0.054.

As for SYCRPPPLPGLP, the protein stability index was determined as 0.628 ± 0.038.

As for SYETLRTPARIA, the protein stability index was 0.583 ± 0.043.

As for SYLMVATRFGEN, the protein stability index is 0.741 ± 0.067.

Sequence SYMLEGVEGVGE gave a protein stability index of 0.736 ± 0.086.

Take SYPPLLPQLPPP: the protein stability index is 0.678 ± 0.062.

As to SYPRATPPWMAG, the protein stability index was determined as 0.727 ± 0.092.

Sequence SYQPQLDSKRVG yielded a protein stability index of 0.63 ± 0.019.

SYRNRTEHPKLP had a protein stability index of 0.74 ± 0.036.

On to SYSGLLEALTTL, for which the protein stability index came out at 0.737 ± 0.032.

Take SYSLGAGVCGVW: the protein stability index was 0.682 ± 0.058.

With TANRVDDSILSS, the protein stability index is 0.671 ± 0.024.

These data come from the supplement of paper PMC10724198.
